Test [1] deals with green fluorescent protein (GFP) (Aequorea-derived) [GFP: P42212]. Nature of the test: cell-based or functional assay.
The next test addresses DsRed (UniProt Q9U6Y8). Nature of the test: cell-based or functional assay.
Chain of UniProt Q9U6Y8 (Q9U6Y8 whole entry): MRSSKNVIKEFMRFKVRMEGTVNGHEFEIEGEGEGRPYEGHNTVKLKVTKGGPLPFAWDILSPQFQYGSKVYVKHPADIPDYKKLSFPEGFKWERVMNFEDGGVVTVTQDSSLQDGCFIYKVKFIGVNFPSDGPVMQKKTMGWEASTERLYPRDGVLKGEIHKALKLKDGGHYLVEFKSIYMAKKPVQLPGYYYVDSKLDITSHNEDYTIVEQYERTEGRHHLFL

In test [1], “dGBP1-TagBFP (destabilized GBP1 fused to TagBFP) (VHH)” showed a % Anti-TagBFP+ given GFP+ cells (CAG promoter for GFP, INL) of 97%; a % Anti-TagBFP+ given GFP+ cells (CAG promoter for GFP, ONL) of 100%; a % Anti-TagBFP+ given GFP+ cells (Rho promoter for GFP, ONL) of 100%; a % GFP+ cells given Anti-TagBFP+ cells (CAG promoter for GFP, INL) of 99%. In addition, in test [1], the % GFP+ cells given Anti-TagBFP+ cells (CAG promoter for GFP, ONL) is 100%; the % GFP+ cells given Anti-TagBFP+ cells (Rho promoter for GFP, ONL) was determined as 100%; the % TagBFP+ given GFP+ or DsRed+ cells in ONL (+CAG-GFP) was found to be 91%. Moreover, the % TagBFP+ given GFP+ or DsRed+ cells in ONL (+CAG-DsRed) with DsRed came out at 0%.

In test [1], “dGBP1x2-Flpo (Flp dependent on GFP, Flp-DOG) (VHH)” had a fold induction of the Flp-dependent luciferase reporter by GFP, 293T cells of 636 fold.

(Values after patent US20180118818A1.)
